# PMC6212770 (Nucleic Acids Research, 2018)
# T1: HermesΔ transposase (UniProt Q25438 79-612, C519S;del497-516)
# T1 sequence: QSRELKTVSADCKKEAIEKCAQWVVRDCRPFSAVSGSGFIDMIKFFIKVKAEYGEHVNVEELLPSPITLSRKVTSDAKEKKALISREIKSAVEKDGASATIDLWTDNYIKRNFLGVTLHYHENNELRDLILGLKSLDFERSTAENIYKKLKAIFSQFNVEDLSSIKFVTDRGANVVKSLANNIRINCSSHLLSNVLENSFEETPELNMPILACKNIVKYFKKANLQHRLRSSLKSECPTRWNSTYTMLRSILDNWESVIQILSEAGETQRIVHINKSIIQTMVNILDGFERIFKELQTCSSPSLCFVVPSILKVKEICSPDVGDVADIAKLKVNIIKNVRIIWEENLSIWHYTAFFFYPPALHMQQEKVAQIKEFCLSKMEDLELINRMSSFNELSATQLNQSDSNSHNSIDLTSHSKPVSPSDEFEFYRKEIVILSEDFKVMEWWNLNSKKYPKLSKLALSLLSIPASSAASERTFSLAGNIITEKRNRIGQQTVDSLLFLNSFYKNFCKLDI
# B1: DNA(A:T) (dsDNA)
# DNA 1: GCGTGAA
# DNA 2: AGAGAACAACAACAAG
# DNA 3: CTTGTTGTTGTTCTCTGGTTCACGC
# B2: Hermes_(79-612Δ497-516) (enzyme, Musca domestica, UniProt Q25442 79-612, looked up)
# chain: QSRELKTVSADCKKEAIEKCAQWVVRDCRPFSAVSGSGFIDMIKFFIKVGAEYGEHVNVEELLPSPITLSRKVTSDAKEKKALISREIKSAVEKDGASATIDLWTDNYIKRNFLGVTLHYHENNELRDLILGLKSLDFERSTAENIYKKLKAIFLQFNVEDLSSIKFVTDRGANVVKSLANNIRINCSSHLLSNVLENSFEETPELNVPILACKNIVKYFKKANLQHRLRSSLKSECPTRWNSTYTMLRSILDNWESVIQILSEAGETQRIVHINKSIIQTMVNILDGFERIFKELQTCSSPSLCFVVPSILKVKEICSPDVGDVADIAKLKVNIIKNVRIIWEENLSIWHYTAFFFYPPALHMQQEKVAQIKEFCLSKMEDLELINRMSSFNELSATQLNQSDSNSHNSIDLTSHSKPVSPSDEFEFYRKEIVILSEDFKVMEWWNLNSKKYPKLSKLALSLLSIPASSAASERTFSLAGNIITEKRNRIGQQTVDSLLFLNSFYKNFCKLDI
# B3: DNA(C:G) (dsDNA)
# DNA 1: GCGTGAC
# DNA 2: AGAGAACAACAACAAG
# DNA 3: CTTGTTGTTGTTCTCTGGGTCACGC
# What was measured:
# HermesΔ transposase [1] = molecular target: T1, HermesΔ transposase; assay: X-ray crystallography; 8 mM Mn2+ soak, 48 h; two Mn2+ in active site, third Mn2+ at N185; Complex dialyzed at 4°C in 25 mM HEPES pH 7.5, 0.3 mM TCEP, 0.5 M then 250 mM NaCl, with or without 5 mM MgCl2; DNA:protein 1:1.05 as printed
# [2] = molecular target: the molecule itself; assay: crystal structure; HermesΔ co-crystallised with annealed DNA(C:G) or DNA(A:T) oligonucleotides, hanging drops at 4°C, with or without a soak in 8 mM CaCl2 or MnCl2; four structures at 2.85-3.2 Å
# HermesΔ transposase [3] = molecular target: T1, HermesΔ transposase; assay: X-ray crystallography; no metal ions; Complex dialyzed at 4°C in 25 mM HEPES pH 7.5, 0.3 mM TCEP, 0.5 M then 250 mM NaCl, with or without 5 mM MgCl2; DNA:protein 1:1.05 as printed
binder,measurement,setting,value
B1,binding result,HermesΔ transposase [1],binds
B2,binding result,[2],binds
B3,binding result,HermesΔ transposase [3],binds
